Assay results published in patent US20090311248A1 (published 2009).

B1: 48G5 (antibody, V domains shown)
VH: QVQLVQSGAEVKRPGASVKVSCKASGYTFTSYAIHWVRQAPGQRLEWMGWINPGNGNAKYSQRFQGRVIISRDTSATTSYMELSSLTSEDTAVYSCARDRGFDLLTGHYLGLDPWGQGTLVTVSS
VL: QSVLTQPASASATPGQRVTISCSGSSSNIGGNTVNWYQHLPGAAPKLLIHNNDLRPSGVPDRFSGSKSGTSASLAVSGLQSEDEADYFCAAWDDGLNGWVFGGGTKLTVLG
notes: also called 48G5C4; IGH 526
B2: 17H1 (antibody, V domains shown)
VH: QVQFVQSGAEVKKPGASVKVSCKASGYTFTRHAIHWVRQAPGQRLEWMGWINPGNGNAKYSQKFQGRVTITRDTPASTVYMELSSLRSEDMGVYYCARDGGYSHDYSYFYGLDVWGPGTTVIVSS
VL: QSVLTQPPSASGTPGQRVTISCSGSSSNIGGNFVDWYQQFPGTAPKLLIYTNDQRPSGVPARFSGSKSGTSASLAISGLRSEDEADYYCAAWDDIVNGWVFGGGTKLTVRG
notes: also called 17H1D9; IGH 520

Columns and labels:
[1] = molecular target: HCV E1 envelope glycoprotein of genotype 2a (pJ6CF) on retroviral pseudoparticles (Hepatitis C virus genotype 2a, UniProt P26660 1-3033); test: cell-based or functional assay
[2] = molecular target: HCV E1 envelope glycoprotein of genotype 3a (strain S52) on retroviral pseudoparticles (Hepatitis C virus genotype 3a); test: cell-based or functional assay
[3] = molecular target: HCV E1 envelope glycoprotein of genotype 1a strain H77 on retroviral pseudoparticles (HCVpp) (Hepatitis C virus genotype 1a strain H77, UniProt P27958 1-3011); test: cell-based or functional assay
Chain of HCV E1 envelope glycoprotein of genotype 1a strain H77 on retroviral pseudoparticles (HCVpp) (P27958 whole entry): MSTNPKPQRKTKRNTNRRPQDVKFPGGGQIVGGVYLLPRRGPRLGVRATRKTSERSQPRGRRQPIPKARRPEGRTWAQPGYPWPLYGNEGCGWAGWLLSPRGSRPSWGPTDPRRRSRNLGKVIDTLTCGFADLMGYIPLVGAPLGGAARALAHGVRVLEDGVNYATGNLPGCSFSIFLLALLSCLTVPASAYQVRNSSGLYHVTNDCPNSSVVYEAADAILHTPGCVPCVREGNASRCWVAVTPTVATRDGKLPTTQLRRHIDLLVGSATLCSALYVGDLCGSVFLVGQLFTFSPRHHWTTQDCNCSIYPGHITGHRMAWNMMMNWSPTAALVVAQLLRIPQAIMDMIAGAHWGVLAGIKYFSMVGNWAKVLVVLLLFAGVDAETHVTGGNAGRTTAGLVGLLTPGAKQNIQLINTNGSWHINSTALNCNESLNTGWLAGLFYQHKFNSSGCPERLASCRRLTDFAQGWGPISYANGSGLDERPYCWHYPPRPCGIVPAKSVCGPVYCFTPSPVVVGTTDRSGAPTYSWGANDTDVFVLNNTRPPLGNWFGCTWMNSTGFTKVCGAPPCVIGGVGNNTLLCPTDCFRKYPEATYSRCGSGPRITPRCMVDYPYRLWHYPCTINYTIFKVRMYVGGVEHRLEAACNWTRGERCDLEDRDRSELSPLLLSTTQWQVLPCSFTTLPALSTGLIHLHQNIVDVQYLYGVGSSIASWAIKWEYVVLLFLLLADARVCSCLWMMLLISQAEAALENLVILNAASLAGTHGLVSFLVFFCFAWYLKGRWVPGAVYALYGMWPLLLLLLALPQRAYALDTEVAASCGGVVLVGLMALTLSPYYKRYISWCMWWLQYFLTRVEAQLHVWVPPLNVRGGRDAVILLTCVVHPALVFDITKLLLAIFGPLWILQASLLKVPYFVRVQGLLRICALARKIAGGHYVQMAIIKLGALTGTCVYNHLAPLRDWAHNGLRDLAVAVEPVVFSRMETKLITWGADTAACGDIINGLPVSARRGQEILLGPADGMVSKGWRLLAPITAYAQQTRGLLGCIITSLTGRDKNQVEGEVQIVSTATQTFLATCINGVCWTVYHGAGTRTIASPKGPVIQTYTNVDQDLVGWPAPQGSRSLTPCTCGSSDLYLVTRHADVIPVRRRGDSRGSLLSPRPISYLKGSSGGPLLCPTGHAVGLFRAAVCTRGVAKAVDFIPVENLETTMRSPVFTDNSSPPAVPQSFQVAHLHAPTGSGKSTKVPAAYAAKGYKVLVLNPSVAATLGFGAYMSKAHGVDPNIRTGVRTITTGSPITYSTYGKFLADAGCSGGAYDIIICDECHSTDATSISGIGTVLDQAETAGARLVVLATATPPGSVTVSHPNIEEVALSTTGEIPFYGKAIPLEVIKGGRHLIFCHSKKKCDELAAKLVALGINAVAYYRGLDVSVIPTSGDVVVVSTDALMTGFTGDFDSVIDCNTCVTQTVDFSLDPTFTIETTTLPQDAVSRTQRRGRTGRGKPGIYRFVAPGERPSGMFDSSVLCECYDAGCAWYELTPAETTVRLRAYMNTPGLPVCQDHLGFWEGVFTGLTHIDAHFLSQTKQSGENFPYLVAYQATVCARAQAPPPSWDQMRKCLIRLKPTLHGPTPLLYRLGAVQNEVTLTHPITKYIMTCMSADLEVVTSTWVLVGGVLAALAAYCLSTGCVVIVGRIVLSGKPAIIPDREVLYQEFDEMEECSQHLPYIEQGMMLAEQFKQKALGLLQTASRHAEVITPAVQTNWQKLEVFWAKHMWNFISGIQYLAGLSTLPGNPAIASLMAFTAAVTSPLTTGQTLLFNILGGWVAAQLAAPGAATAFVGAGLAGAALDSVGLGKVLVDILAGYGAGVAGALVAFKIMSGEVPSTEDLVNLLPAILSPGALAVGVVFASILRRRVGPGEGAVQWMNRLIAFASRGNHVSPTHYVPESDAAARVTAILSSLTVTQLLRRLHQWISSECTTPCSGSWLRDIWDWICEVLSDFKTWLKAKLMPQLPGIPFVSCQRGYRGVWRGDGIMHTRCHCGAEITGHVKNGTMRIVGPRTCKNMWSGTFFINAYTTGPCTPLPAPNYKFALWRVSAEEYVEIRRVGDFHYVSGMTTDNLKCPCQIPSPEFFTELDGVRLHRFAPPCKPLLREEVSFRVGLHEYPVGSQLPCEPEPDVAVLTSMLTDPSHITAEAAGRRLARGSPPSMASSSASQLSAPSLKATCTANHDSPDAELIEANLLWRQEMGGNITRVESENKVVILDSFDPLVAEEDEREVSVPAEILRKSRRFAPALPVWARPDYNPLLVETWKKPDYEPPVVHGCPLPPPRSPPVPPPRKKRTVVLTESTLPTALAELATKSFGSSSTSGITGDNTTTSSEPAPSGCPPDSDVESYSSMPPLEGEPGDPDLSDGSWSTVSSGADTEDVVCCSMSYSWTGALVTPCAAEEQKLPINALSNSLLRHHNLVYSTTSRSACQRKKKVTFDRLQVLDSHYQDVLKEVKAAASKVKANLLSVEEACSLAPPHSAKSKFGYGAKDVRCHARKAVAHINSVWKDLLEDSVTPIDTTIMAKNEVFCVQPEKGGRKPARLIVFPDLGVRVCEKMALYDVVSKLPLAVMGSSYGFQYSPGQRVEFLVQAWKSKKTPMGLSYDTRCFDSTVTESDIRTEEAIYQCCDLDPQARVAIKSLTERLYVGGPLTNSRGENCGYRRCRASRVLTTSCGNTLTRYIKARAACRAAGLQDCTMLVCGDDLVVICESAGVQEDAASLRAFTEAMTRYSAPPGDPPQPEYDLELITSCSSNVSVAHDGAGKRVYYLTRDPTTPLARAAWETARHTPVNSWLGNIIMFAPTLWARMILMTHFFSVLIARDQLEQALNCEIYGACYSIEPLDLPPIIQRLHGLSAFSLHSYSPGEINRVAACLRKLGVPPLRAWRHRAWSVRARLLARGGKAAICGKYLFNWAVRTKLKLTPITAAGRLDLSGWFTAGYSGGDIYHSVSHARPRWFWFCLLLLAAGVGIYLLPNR

[4] = molecular target: HCV E1 envelope glycoprotein of genotype 6a (strain HK-6a) on retroviral pseudoparticles (Hepatitis C virus genotype 6a); test: cell-based or functional assay
[5] = molecular target: HCV E1 envelope glycoprotein of genotype 1b (HCCl 66) on retroviral pseudoparticles (Hepatitis C virus genotype 1b); test: cell-based or functional assay
[6] = molecular target: HCV E1 envelope glycoprotein of genotype 4a (strain ED43) on retroviral pseudoparticles (Hepatitis C virus genotype 4a, UniProt O39929 1-3008); test: cell-based or functional assay
[7] = molecular target: HCV E1 envelope glycoprotein of genotype 5a (strain SA13) on retroviral pseudoparticles (Hepatitis C virus genotype 5a, UniProt O91936 1-3014); test: cell-based or functional assay
IGP 2138 = molecular target: T1, IGP 2138 (Hepatitis C virus (HCV)); test: ELISA, […], antibody at 1.25 µg/mL
T1 construct: also called WDMMMNW

IGP 2137 = molecular target: T2, IGP 2137 (Hepatitis C virus (HCV)); test: ELISA, […], antibody at 1.25 µg/mL
T2 construct: also called RMAWDM

IGP 2241 = molecular target: T3, IGP 2241 (Hepatitis C virus (HCV)); test: ELISA, […], antibody at 1.25 µg/mL
T3 construct: E1 peptide

IGP 2254 = IGP 2254 (Hepatitis C virus (HCV), N-terminal Biotin; C-terminal -CONH2); test: BIAcore, antibody immobilized, peptide IGP 2254 in solution

| Binder | lowest concentration of antibody in µg/ml exhibiting at least 50% neutralization (HCVpp) [1] | lowest concentration of antibody in µg/ml exhibiting at least 50% neutralization (HCVpp) [2] | lowest concentration of antibody in µg/ml exhibiting at least 50% neutralization (HCVpp) [3] | lowest concentration of antibody in µg/ml exhibiting at least 50% neutralization (HCVpp) [4] | lowest concentration of antibody in µg/ml exhibiting at least 50% neutralization (HCVpp) [5] | lowest concentration of antibody in µg/ml exhibiting at least 50% neutralization (HCVpp) [6] | lowest concentration of antibody in µg/ml exhibiting at least 50% neutralization (HCVpp) [7] | binding result (IGP 2138) | binding result (IGP 2137) | binding result (IGP 2241) | Kd (IGP 2254) | koff (IGP 2254) | kon (IGP 2254) |
| --- | --- | --- | --- | --- | --- | --- | --- | --- | --- | --- | --- | --- | --- |
| B1 | 50 µg/mL | > 50 µg/mL | < 1 µg/mL | 3.1 µg/mL | 12.5 µg/mL | 6.2 µg/mL | 1.6 µg/mL | no binding (tested: 1.25 µg/ml) | no binding (tested: 1.25 µg/ml) | no binding (tested: 1.25 µg/ml) | 0.2 nM | 0.000305 s⁻¹ | 1.54e+06 M⁻¹ s⁻¹ |
| B2 | 50 µg/mL | < 50 µg/mL | 3.1 µg/mL | 6.2 µg/mL | 6.2 µg/mL | < 1 µg/mL | < 1 µg/mL | – | – | – | 0.15 nM | 0.000357 s⁻¹ | 2.35e+06 M⁻¹ s⁻¹ |
